Data set [1] relates to β2-adrenergic (β2-AR) receptor. The data set can be described thus: isoproterenol stimulation of HEK 293 cells with β2-AR, Flag-p38α and GRK2 (co-immunoprecipitation, anti-phospho-p38). Format: cell-based, human.
Description: 48 hours after the transfection and after a 2 hour serum starvation, the cells were stimulated with the adrenergic agonist isoproterenol (ISO, 10 μM) for 5 or 10 minutes or they were not stimulated (0 min ISO). Likewise, cells without overexpressed β2-AR receptor were stimulated with 0.5 M NaCl for 15 minutes. The cells were solubilized in a buffer suitable for immunoprecipitation with the M2 anti-Flag antibody bound to agarose and after taking aliquots of these lysates (10%) for overexpression control (lysate panels) the immune complexes were incubated overnight at 4° C. The immunoprecipitated proteins (Ip anti-Flag) were resuspended in an electrophoresis breaking buffer and the bound proteins were resolved in a 10% SDS-polyacrylamide gel. […] The negative immunoprecipitation controls (Cneg) in the absence of Flag-p38α and of stimulation with 10 μM isoproterenol are also included in the figure. […] As described in A, non-specific immunoprecipitation controls (Cneg) of the M2 anti-Flag-agarose antibody were carried out.
In the GRK2 and Flag-p38α association experiments, a 1:1:1 ratio of GRK2 (or GRK2-K220R), Flag-p38α, and β2-adrenergic receptor was used (generally 1 μg of each per p60).
The stimulation of HEK293 cells with 10 μM isoproterenol (Sigma) was carried out at 37° C. in culture medium without serum. […]
The target in the next data set is T1, GRK2 (Bos taurus, UniProt P21146).
T1 construct: made in house; host or cells: Sf9 cells (baculovirus)
T1 sequence (P21146 1-689): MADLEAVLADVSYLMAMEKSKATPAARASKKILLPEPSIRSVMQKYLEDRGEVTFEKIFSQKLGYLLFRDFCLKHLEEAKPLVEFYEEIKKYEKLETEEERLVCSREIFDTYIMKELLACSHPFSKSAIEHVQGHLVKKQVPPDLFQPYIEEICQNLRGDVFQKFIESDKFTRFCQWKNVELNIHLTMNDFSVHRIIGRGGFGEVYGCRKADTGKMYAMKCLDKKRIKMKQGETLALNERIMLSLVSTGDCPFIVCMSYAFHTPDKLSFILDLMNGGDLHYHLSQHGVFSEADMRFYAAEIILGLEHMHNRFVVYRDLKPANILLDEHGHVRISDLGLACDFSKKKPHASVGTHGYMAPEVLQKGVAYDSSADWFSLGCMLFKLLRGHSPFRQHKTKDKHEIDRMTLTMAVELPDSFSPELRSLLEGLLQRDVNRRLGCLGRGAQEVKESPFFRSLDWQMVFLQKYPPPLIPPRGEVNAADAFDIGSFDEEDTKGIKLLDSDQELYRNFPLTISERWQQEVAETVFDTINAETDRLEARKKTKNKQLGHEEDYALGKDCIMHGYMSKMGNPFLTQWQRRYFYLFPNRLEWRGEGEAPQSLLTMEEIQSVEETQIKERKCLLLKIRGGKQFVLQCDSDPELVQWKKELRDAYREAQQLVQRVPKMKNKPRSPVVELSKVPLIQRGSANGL
Nature of the data set: phosphorylation of p38 mutants and truncated proteins by GRK2 in vitro. As to conditions: GST fusion proteins, 30 minutes at 30° C. Format: biochemical. As for the experimental part:
FIG. 6A: Proteins fused to GST (black rectangle in the protein schemes) were purified from bacteria transformed with the plasmids pGEX2T-p38α, pGEX4T-Mxi2 and pGEX4T-Mxi2Δ17: p38α, Mxi2 and Mxi2Δ17. The […] isoforms used as C-terminal truncated mutants for trying to limit the GRK2 phosphorylation site. […] Heparin (150 nM) was included as a specific GRK2 inhibitor. The reactions were stopped by adding SDS breaking buffer. The samples were resolved in 8% SDS-PAGE. For the purpose of assuring the inclusion of identical amounts of protein, they were first visualized in the gel by Coomassie Brilliant Blue (CBB) staining. Then the gel was dried and the radioactivity incorporated to the proteins (^32P) was detected. FIG. 6B: The truncated GST-280-360p38 protein, corresponding to the last 80 p38α amino acids, was generated by means of the Invitrogen Gateway system. Phosphorylation assays were carried out with Mxi2Δ17 as a p38 N-terminal, 280-360 p38 as C-terminal and with whole p38α in the same conditions as described in section A. The phosphorylation was detected by autoradiography (^32P) and controls of the amount of protein used in the assays were carried out concomitantly by Western blot with the anti-GST antibody. The presence of the GST-280-360p38 protein, which is not phosphorylated, is clearly observed. STD, mobility of standard molecular weight proteins.
FIG. 9A: p38T123A and p38T123D proteins, fused to GST, were made by directed mutagenesis in the prokaryotic expression plasmids pGEX2T. The ability of the recombinant GST-p38T123A and GST-p38T123D proteins to be GRK2 substrates in comparison to the wild GST-p38WT protein and at the final concentrations indicated in the Figure was assayed. The upper panels represent the obtained phosphorylation (32 P) and the lower panels show, by anti-p38N WB, the amount of recombinant protein used in the assays. […]
Heparin (150 nM) was included as a specific GRK2 inhibitor. […] Subsequently, the gel was dried and the radioactivity incorporated to the proteins (^32P) was detected. […]

For another data set, the system named is 3T3-L1 cells. Nature of the data set: adipocyte differentiation of 3T3-L1 (Oil Red staining, adipocyte count). Format: cell-based. The settings on record: 3T3L1 lines stably transfected, day 15. An excerpt:
3T3L1 lines stably transfected with pCDNA3-GRK2 and pCDNA3-GRK2K220R were made. GRK2 (anti-GRK2) expression controls obtained in cell lines, compared to 3T3L1 levels, are included. The cells were subjected to a standard differentiation treatment and on day 15 of the latter, the cells were fixed with formalin and stained with Oil Red, a lipophilic coloring which binds to the fats accumulated by the adipocytes. The cells with adipocytic phenotype (in red) were counted under microscope in a total of 25 fields. Representative photographs of two independent experiments are shown in duplicate. A photo of the 3T3L1 cells, free of stimulation with insulin during the differentiation process (control), is also included. The graph reflects the adipocyte count (±SEM) in these experiments.
The cell culture was carried out with 10% DMEM medium of NCS serum. However, the entire differentiation process which is described below must be performed in depleted AXC serum (ion exchange resin) by means of successive adsorptions of fetal calf serum on an anion exchange resin and on active carbon. AXC serum was provided by the kitchen service of the Instituto of Investigaciones Biomédicas (Biomedical Research Institute). The cells are grown until their confluence and are plated (5×10^5 in P-100) in DMEM-10% AXC medium, supplemented with 4 μM of biotin (Sigma). The following day, the medium is replaced with fresh medium. The cells are grown another three days, until confluence is reached again, that day is called day “0”. On day 0 of differentiation, the cells are cultured in a medium containing: 0.5 μM dexamethasone (Sigma), 0.5 mM 3-isobutyl-1-methylxanthine (IMBX, of Sigma) and 1 μM insulin (Sigma) and in which they will remain for another three days. […] From day 6 to day 15, the adipogenesis was analyzed by staining with Oil Red, a red coloring of lipophilic constitution which binds to the drops of fat accumulated by the adipocytes in their cytoplasm. […] The cells are counted in a total of 25 fields per each experimental plate.

Here are results for 4 molecules from patent publication US20080233097A1, “Phosphorylation Site Of Mitogen-Activated Protein Kinases, Modified Proteins And Applications” (UNIVERSIDAD AUTONOMA DE MADRID, priority 2005, published 2008).

`CC(C)NCC(O)c1ccc(O)c(O)c1` (centres unmarked) [isoproterenol]: the “p38 activation (anti-phospho-p38)” value in data set [1] (10 μM) is “not very strong”. For the same molecule, in data set [1] (10 μM, 0, 5 or 10 minutes), the “association between GRK2 and p38 (co-immunoprecipitation)” value is given as “maximum association is obtained five minutes after exposure”.

B1: purified MKK6 (recombinant MKK6CAM, Upstate Biotech) (protein)
chain: MSQSKGKKRNPGLKIPKEAFEQPQTSSTPPRDLDSKACISIGNQNFEVKADDLEPIMELGRGAYGVVEKMRHVPSGQIMAVKRIRATVNSQEQKRLLMDLDISMRTVDCPFTVTFYGALFREGDVWICMELMDTSLDKFYKQVIDKGQTIPEDILGKIAVSIVKALEHLHSKLSVIHRDVKPSNVLINALGQVKMCDFGISGYLVDEVAKEIDAGCKPYMAPERINPELNQKGYSVKSDIWSLGITMIELAILRFPYDSWGTPFQQLKQVVEEPSPQLPADKFSAEFVDFTSQCLKKNSKERPTYPELMQHPFFTLHESKGTDVASFVKLILGD
As to B1, the “phosphorylation by MKK6CAM (32P incorporation)” value in the data set with GST-p38T123D was “GST-p38T123D is a much worse MKK6CAM substrate than the other two p38”.

B2: GST-280-360 p38α: truncated protein corresponding to the last 80 amino acids of p38α, fused to GST (protein)
chain: AVDLLEKMLVLDSDKRITAAQALAHAYFAQYHDPDDEPVADPYDQSFESRDLLIDEWKSLTYDEVISFVPPPLDQEEMES
modifications: left off: a dimerising Fc or GST
notes: truncated protein corresponding to the last 80 amino acids of p38α, fused to GST
As to B2, in the data set with GRK2, the “ability to be a GRK2 substrate (32P incorporation)” value is reported as “no trace whatsoever of phosphorylation”.

B3: K220R: catalytically inactive GRK2-K220R mutant (protein)
chain: MADLEAVLADVSYLMAMEKSKATPAARASKKILLPEPSIRSVMQKYLEDRGEVTFEKIFSQKLGYLLFRDFCLKHLEEAKPLVEFYEEIKKYEKLETEEERLVCSREIFDTYIMKELLACSHPFSKSAIEHVQGHLVKKQVPPDLFQPYIEEICQNLRGDVFQKFIESDKFTRFCQWKNVELNIHLTMNDFSVHRIIGRGGFGEVYGCRKADTGKMYAMRCLDKKRIKMKQGETLALNERIMLSLVSTGDCPFIVCMSYAFHTPDKLSFILDLMNGGDLHYHLSQHGVFSEADMRFYAAEIILGLEHMHNRFVVYRDLKPANILLDEHGHVRISDLGLACDFSKKKPHASVGTHGYMAPEVLQKGVAYDSSADWFSLGCMLFKLLRGHSPFRQHKTKDKHEIDRMTLTMAVELPDSFSPELRSLLEGLLQRDVNRRLGCLGRGAQEVKESPFFRSLDWQMVFLQKYPPPLIPPRGEVNAADAFDIGSFDEEDTKGIKLLDSDQELYRNFPLTISERWQQEVAETVFDTINAETDRLEARKKTKNKQLGHEEDYALGKDCIMHGYMSKMGNPFLTQWQRRYFYLFPNRLEWRGEGEAPQSLLTMEEIQSVEETQIKERKCLLLKIRGGKQFVLQCDSDPELVQWKKELRDAYREAQQLVQRVPKMKNKPRSPVVELSKVPLIQRGSANGL
As to B3, in the data set with 3T3-L1 cells, the “acquisition of the adipocytic morphology mediated by insulin” value is on record as “stimulates it”.
